Measured values: patent US10577406B2, “FKBP-L polypeptides and uses in angiogenesis-mediated disorders” (ALMAC DISCOVERY LIMITED, priority 2006, dated 2020)

B1: full length recombinant FKBP-L: recombinant full length his-tagged FKBP-L protein (SEQ ID NO: 1) expressed in BL21 (DE3) (protein, listed as Homo sapiens)
chain: MRGSHHHHHHGMASMTGGQQMGRDLYDDDDKDRWGSMETPPVNTIGEKDTSQPQQEWEKNLRENLDSVIQIRQQPRDPPTETLELEVSPDPASQILEHTQGAEKLVAELEGDSHKSHGSTSQMPEALQASDLWYCPDGSFVKKIVIRGHGLDKPKLGSCCRVLALGFPFGSGPPEGWTELTMGVGPWREETWGELIEKCLESMCQGEEAELQLPGHTGPPVGLTLASFTQGRDSWELETSEKEALAREERARGTELFRAGNPEGAARCYGRALRLLLTLPPPGPPERTVLHANLAACQLLLGQPQLAAQSCDRVLEREPGHLKALYRRGVAQAALGNLEKATADLKKVLAIDPKNRAAQEELGKVVIQGKNQDAGLAQGLRKMFG
modifications: His tag

Tests used:
HMEC-1 = type: cell-based, Human
Protocol: (§1) The in vitro tubule formation assay used in these studies is a modified version of the method described by Ashton et al (1999). In brief, assays were conducted using BD BioCoat™ Matrigel™ Matrix Thin Layer 24-well Multiwell Plates (BD Discovery Labware, Oxford, UK). The Matrigel™ was rehydrated with 500 μl MCDB-131 serum free medium and incubated at 37° C. for 30 minutes. Excess medium was removed and HMEC-1 were seeded at a density of 1×10^5 and the plates incubated at 37° C. under 5% CO2/95% air for 1 hour.
Increasing concentrations of the recombinant FKBP-L protein (SEQ ID NO: 1) were added to each individual well in triplicate (250-1000 ngml^−1) and the plate was incubated for a further 18 hours. The degree of tubule formation between adjacent HMEC-1 cells was assessed in each well in five fields of view, by counting the number of cell to cell contacts between different HMEC-1 cells in the designated area. An independent investigator assessed each well and the FKBP-L treated wells were compared to sham treated controls.
as §1, with “al.” for “al”, “min.” for “minutes.”, “h. Increasing concentrations of FKBP-L 24mer (SEQ ID NO: 10) and 1-57mer (SEQ ID NO: 6) from 10^−14-10^−6 M were used.” for “hour.”
The plate was incubated for a further 18 h. The degree of tubule formation between adjacent HMEC-1 cells was assessed in each well in five fields of view, by counting the number of cell to cell contacts between different HMEC-1 cells in the designated area. An independent investigator assessed each well and the FKBP-L treated wells were compared to sham treated controls.

[1] = test system: bFGF-induced vessels in subcutaneously implanted polyether sponges; test: mouse sponge assay of angiogenesis in vivo; set-up: species or system C57 black mice; settings: for reduction in vessel number versus bFGF alone: day 21
Protocol: In these experiments, polyether sponges were subcutaneously implanted in C57 black mice and injected on alternate days with 10 ng bovine fibroblast growth factor (bFGF) or 10 ng bFGF+5 μg full length His-tagged recombinant FKBP-L polypeptide (SEQ ID NO: 1). After 14 days of treatment, sponges were harvested, sectioned and stained with heamatoxylin and eosin.
This experiment evalulated the ability of the FKBP-L 24mer to inhibit angiogenesis using the mouse sponge assay. Polyether sponges were subcutaneously implanted in C57 black mice on day 0 and injected on alternate days with (a) 10 ng bFGF control (3 mice) (b) 10 ng bovine fibroblast growth factor (bFGF)+5 μg full-length his-tagged recombinant FKBPL (equivalent to 3.2×10^−6 M in vitro) (3 mice) (c) 10 ng bFGF+0.35 μg FKBPL 24mer (molar equivalent of 5 μg full-length recombinant FKBPL) (3 mice) or (d) 0.11 ng FKBPL 24mer (equivalent to 10^−9 M in vitro) (3 mice).
All mice were sacrificed on day 21. Sponges were removed, fixed and paraffin embedded. Five micron sections were stained with haematoxylin and eosin. Vessels were blindly counted by 3 independent assessors using ×40 magnification in 10 fields per section. The average count per sponge/mouse was then plotted for each assessor.

Molecule	EC50 (HMEC-1; 18 h)	reduction in vessel number versus bFGF alone ([1]; 10 ng bFGF + 0.35 μg on alternate days)	reduction in vessel number versus bFGF alone ([1]; lowest dose (0.11 ng, equivalent to 10^−9 M in vitro) on alternate days)	optimum concentration for inhibition of cell to cell contacts or tubules (HMEC-1; 250-1000 ngml^−1, 18 hours)	efficacy (inhibition of cell to cell contacts) at optimum concentration (HMEC-1; 750 ngml^−1, 18 hours)	EC50 potency, tube formation (HMEC-1; 18 hours)	reduction in vessel number versus bFGF alone ([1]; 10 ng bFGF + 5 μg on alternate days)	vessel counts versus bFGF alone ([1]; 10 ng bFGF+5 μg on alternate days, 14 days, p=0.0008)
H-QIRQQPRDPPTETLELEVSPDPAS-OH [FKBP-L 24mer]	0.03 nM	80%	70%	–	–	–	–	–
B1	–	–	–	750 ngml^−1	80%	314 ngml^−1	50%	significantly fewer vessels
